Reference: paper PMC2765525

Biological target: KIX domain (residues 568-672) of mouse CBP (mouse) (UniProt P45481)
Experiment: NMR titration

Chain of KIX domain (residues 568-672) of mouse CBP (mouse) (P45481 568-672): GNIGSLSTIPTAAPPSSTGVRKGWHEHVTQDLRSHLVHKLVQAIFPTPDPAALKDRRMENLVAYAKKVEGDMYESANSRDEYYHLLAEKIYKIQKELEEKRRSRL

Which Kd does the source give for “p53(14-28) (from UniProt P04637 14-28) (peptide)” here?
Its Kd is 214 µM.
